Measured values taken from publication PMC10952621, “Long QT syndrome‐associated calmodulin variants disrupt the activity of the slowly activating delayed rectifier potassium channel” (The Journal of Physiology, 2023).

Biological target: human wild-type calmodulin (CaM-WT) (human, UniProt P0DP23 2-149)
Assay: ITC; Kv7.1-HA peptide titrated into CaM (~50 uM) in the cell; 50 mM Na-HEPES, 100 mM KCl, 2 mM MgCl2, pH 7.5, 5 mM CaCl2; 25 °C; one-site binding model
Details: both partners purified

B1: Kv7.1-HA(370-389) peptide, helix A of the KCNQ1 C-terminus (peptide)
peptide: AAASLIQTAWRCYAAENPDS
notes: source: synthetic peptide (GenicBio, HPLC purified, >95% purity)
B1 was tested. Which Kd did it give?
The Kd was about 96 µM.
